For test [1], the target named is huPD-L1 (Homo sapiens, UniProt Q9NZQ7). The experiment in a line: Flow binding to CHO cells stably expressing PD-L1. Details: huCTLA4 and huPD-L1, full-length mammalian surface expression constructs were generated; expressed in transfected cells; host or cells: CHO cells, lentiviral transduction, sorted to >98% purity. The following applies: for PD-L1 MFI at 33.3 nM: CHO cells stably expressing PD-L1; for PD-L1 Fold change to WT CD80: MFI at 33.3 nM relative to CD80 WT IgV-Fc; for Ratio of PDL1:CD28: ratio of MFI at 33.3 nM. The procedure:
(§1) Binding of selected immunomodulatory fusion proteins to cognate binding partners was assessed. […] Cells were sorted in a Bio-Rad S3 Cell Sorter (Bio-Rad Corp., USA) to >98% purity. Jurkat/IL2 reporter cells, which endogenously express CD28, were used to detect binding to CD28.
(§2) For staining and analysis by flow cytometry, 100,000 cells of appropriate transfected cells were plated in 96-well round bottom plates. Cells were spun down and resuspended in staining buffer (phosphate buffered saline (PBS), 1% bovine serum albumin (BSA), and 0.1% sodium azide) for 20 minutes to block non-specific binding. […] Primary staining was performed on ice for 45 minutes, before washing cells in staining buffer twice. Phycoerythrin (PE)-conjugated anti-human Fc (Jackson ImmunoResearch, USA) was diluted 1:150, added to cells and incubated another 30 minutes on ice. Cells were then washed twice with 150 μL/well stain buffer, fixed in 2% formaldehyde/PBS, and analyzed on Intellicyt flow cytometer (Intellicyt Corp., USA). PE Mean Fluorescence Intensity (MFI) was calculated for each cell type with FlowJo Version 10 software (FlowJo LLC, USA).
(§3) Binding assays were carried out to assess the specificity and affinity of multivalent proteins to cell-expressed CTLA-4, CD28, and PD-L1 counter structures.
(§4) The EC50 for binding also was determined.

Test [2] has as its target T1, CD28 (Homo sapiens, UniProt P10747). Kind of test: Jurkat/IL2 + CHO/OKT3 +/- PD-L1 reporter assay: PD-L1-dependent CD28 costimulation. The test is classed as cell-based. Further details: host or cells: Jurkat cells expressing an IL-2-luciferase reporter. Conditions: Jurkat/IL2 + CHO/OKT3/PD-L1. The procedure: Jurkat cells were then plated at 50 μL/well for a total of 100,000 cells per well.
To each well, 25 μL of test protein was added to the Jurkat cells. […] The Jurkat cells with test or control proteins were incubated for 15 minutes at room temperature. CHO-derived artificial antigen presenting cells (aAPC) displaying transduced cell surface anti-CD3 single chain Fv (OKT3) (i.e., no PD-L1), or OKT3 and PD-L1 (i.e., +PD-L1), were brought to 0.8×10^6 cells/mL, and 25 μL of cells were added to each well, bringing the final volume of each well to 100 μL. […] Jurkat cells and CHO cells were incubated for 5 hours at 37 degrees Celsius in a humidified 5% CO2 incubation chamber. Plates were then removed from the incubator and acclimated to room temperature for 15 minutes. 100 μL of a cell lysis and luciferase substrate solution (BioGlo luciferase reagent, Promega) were added to each well and the plates were incubated on an orbital shaker for 10 minutes. Luminescence was measured with a 1 second per well integration time using a BioTek Cytation luminometer, and a relative luminescence value (RLU) was determined for each test sample.

In test [3] the target is huCTLA4 (Homo sapiens, UniProt P16410). The experiment in a line: Flow binding to CHO cells stably expressing CTLA4. Details: huCTLA4 and huPD-L1, full-length mammalian surface expression constructs were generated; expressed in transfected cells; host or cells: CHO cells, lentiviral transduction, sorted to >98% purity. The following applies: for CTLA4 MFI at 33.3 nM: CHO cells stably expressing CTLA4; for CTLA4 Fold change to WT CD80: MFI at 33.3 nM relative to CD80 WT IgV-Fc. Here is the method:
as §1, §2, §3, §4

Test [4] has as its target T1, CD28. The experiment in a line: Flow binding to Jurkat/IL2 reporter cells (CD28). Details: host or cells: Jurkat cells expressing an IL-2-luciferase reporter. Conditions: for CD28 Fold change to WT CD80: MFI at 33.3 nM relative to CD80 WT IgV-Fc. Here is the method:
as §1, §2, §3, §4

Setting [5] is: Table E20, Jurkats (CD28), 33.3 nM.
Setting [6] is: Table E23, CD80 IgV-Fc (inert) at 33.3 nM.
Setting [7] is: Table E23, CD80 IgV-Fc (inert) at 33.3 nM, Jurkat (CD28).

Experimental findings from patent US20220177587A1, “METHODS AND USES OF VARIANT CD80 FUSION PROTEINS AND RELATED CONSTRUCTS” (Alpine Immune Sciences, Inc., priority 2018, published 2022) are described below.

Sequence of huCTLA4 (P16410 36-223): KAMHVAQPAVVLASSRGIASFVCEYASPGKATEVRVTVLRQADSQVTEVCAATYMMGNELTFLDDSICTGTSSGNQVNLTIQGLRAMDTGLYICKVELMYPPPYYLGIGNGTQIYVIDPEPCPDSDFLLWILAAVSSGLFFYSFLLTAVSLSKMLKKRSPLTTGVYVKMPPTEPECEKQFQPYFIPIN
Sequence of huPD-L1 (Q9NZQ7 19-290): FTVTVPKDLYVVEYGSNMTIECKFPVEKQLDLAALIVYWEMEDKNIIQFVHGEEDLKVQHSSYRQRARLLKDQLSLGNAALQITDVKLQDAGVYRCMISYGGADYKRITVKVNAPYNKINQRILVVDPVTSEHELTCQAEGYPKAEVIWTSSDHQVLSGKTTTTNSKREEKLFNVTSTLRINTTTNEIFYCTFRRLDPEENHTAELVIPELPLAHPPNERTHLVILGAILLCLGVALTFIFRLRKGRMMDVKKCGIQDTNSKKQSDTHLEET

For H18Y/A26E/E35D/V68M/D90G, the “PD-L1 MFI at 33.3 nM” value in test [1] (Table E20, 33.3 nM) was 23206. Further, in test [1] (Table E20), the “PD-L1 Fold change to WT CD80” value is 532.2 fold and the “Ratio of PDL1:CD28” value is 9.0. The “Fold Increase over WT CD80-IgV-Fe” value in test [2] (Table E22, 5.0 nM) turned out to be 2.69 fold. In test [2] (Table E22, CD80 Conc 5.0 nM), the “Relative Luciferase Units (RLU), CD80 Conc 5.0 nM” value (“Relative Luciferase Units (RLU)” for short) was found to be 1049 RLU. The “CTLA4 MFI at 33.3 nM” value in test [3] (Table E20, 33.3 nM) was determined as 19331. Besides, the “CTLA4 Fold change to WT CD80” value in test [3] (Table E20) is 14.2 fold. For the same substance, in test [4] (setting [5]), the “CD28 MFI at 33.3 nM” value came to 2584. For the same substance, the “CD28 Fold change to WT CD80” value in test [4] (Table E20) is 58.9 fold.

As to H18Y/A26E/E35D/V68M/A71G, the “PD-L1 MFI at 33.3 nM” value in test [1] (Table E20, 33.3 nM) turned out to be 27476. In test [1] (Table E20), the “PD-L1 Fold change to WT CD80” value is given as 630.2 fold and the “Ratio of PDL1:CD28” value is recorded as 69.7. Also, in test [2] (Table E22, 5.0 nM), the “Fold Increase over WT CD80-IgV-Fe” value was 2.46 fold. In test [2] (Table E22, CD80 Conc 5.0 nM), the “Relative Luciferase Units (RLU)” value was determined as 961 RLU. Besides, the “CTLA4 MFI at 33.3 nM” value in test [3] (Table E20, 33.3 nM) is given as 19394. Further, the “CTLA4 Fold change to WT CD80” value in test [3] (Table E20) is listed as 14.3 fold. The “CD28 MFI at 33.3 nM” value in test [4] (setting [5]) came to 394. Also, the “CD28 Fold change to WT CD80” value in test [4] (Table E20) was found to be 9.0 fold.

For the substance H18Y/E35D/M47L/V68M/A71G, the “PD-L1 MFI at 33.3 nM” value in test [1] (Table E20, 33.3 nM) worked out at 30377. In test [1] (Table E20), the “PD-L1 Fold change to WT CD80” value turned out to be 696.7 fold and the “Ratio of PDL1:CD28” value amounted to 32.7. Further, the “Fold Increase over WT CD80-IgV-Fe” value in test [2] (Table E22, 5.0 nM) stood at 2.19 fold. The “Relative Luciferase Units (RLU)” value in test [2] (Table E22, CD80 Conc 5.0 nM) is 853 RLU. The “CTLA4 MFI at 33.3 nM” value in test [3] (Table E20, 33.3 nM) is on record as 23667. For the same substance, in test [3] (Table E20), the “CTLA4 Fold change to WT CD80” value was found to be 17.4 fold. Also, in test [4] (setting [5]), the “CD28 MFI at 33.3 nM” value is on record as 928. Further, the “CD28 Fold change to WT CD80” value in test [4] (Table E20) is 21.1 fold.

Take H18Y/A26E/E35D/M47L/V68M/D90G: in test [1] (Table E20, 33.3 nM), the “PD-L1 MFI at 33.3 nM” value is 25217. In test [1] (Table E20), the “PD-L1 Fold change to WT CD80” value was 578.4 fold and the “Ratio of PDL1:CD28” value is on record as 9.4. The “Fold Increase over WT CD80-IgV-Fe” value in test [2] (Table E22, 5.0 nM) worked out at 2.29 fold. Besides, the “Relative Luciferase Units (RLU)” value in test [2] (Table E22, CD80 Conc 5.0 nM) amounted to 893 RLU. Further, the “CTLA4 MFI at 33.3 nM” value in test [3] (Table E20, 33.3 nM) came to 24855. Moreover, in test [3] (Table E20), the “CTLA4 Fold change to WT CD80” value is 18.3 fold. Moreover, the “CD28 MFI at 33.3 nM” value in test [4] (setting [5]) was 2675. Also, the “CD28 Fold change to WT CD80” value in test [4] (Table E20) is 60.9 fold.

As for H18V/A26S/E35D/M47L/V68M/A71G/D90G, the “PD-L1 MFI at 33.3 nM” value in test [1] (setting [6]) is recorded as 73884. In test [1] (Table E23), the “PD-L1 Fold change to WT CD80” value is reported as 447.8 and the “Ratio of PDL1:CD28” value was determined as 9.2. Also, in test [2] (Table E24, 5.0 nM), the “Fold Increase over WT CD80-IgV-Fe” value worked out at 5.2 and the “Relative Luciferase Units (RLU)” value stood at 883 RLU. Besides, the “CTLA4 MFI at 33.3 nM” value in test [3] (setting [6]) is given as 24919. The “CTLA4 Fold change to WT CD80” value in test [3] (Table E23) worked out at 18.0. Also, the “CD28 MFI at 33.3 nM” value in test [4] (setting [7]) came out at 8063. Moreover, the “CD28 Fold change to WT CD80” value in test [4] (Table E23) was found to be 79.0.

For the substance H18Y/A26Q/E35D/M47T/V68M/A71G/D90G, in test [1] (setting [6]), the “PD-L1 MFI at 33.3 nM” value is 24450. Moreover, in test [1] (Table E23), the “PD-L1 Fold change to WT CD80” value was 148.2 and the “Ratio of PDL1:CD28” value turned out to be 3.6. Also, in test [2] (Table E24, 5.0 nM), the “Fold Increase over WT CD80-IgV-Fe” value was 5.8 and the “Relative Luciferase Units (RLU)” value is listed as 994 RLU. For the same substance, in test [3] (setting [6]), the “CTLA4 MFI at 33.3 nM” value is given as 16652. Further, the “CTLA4 Fold change to WT CD80” value in test [3] (Table E23) worked out at 12.0. In addition, in test [4] (setting [7]), the “CD28 MFI at 33.3 nM” value is 6733. Further, the “CD28 Fold change to WT CD80” value in test [4] (Table E23) amounted to 66.0.
